B1: 2H7-hIgG4 (antibody)
heavy: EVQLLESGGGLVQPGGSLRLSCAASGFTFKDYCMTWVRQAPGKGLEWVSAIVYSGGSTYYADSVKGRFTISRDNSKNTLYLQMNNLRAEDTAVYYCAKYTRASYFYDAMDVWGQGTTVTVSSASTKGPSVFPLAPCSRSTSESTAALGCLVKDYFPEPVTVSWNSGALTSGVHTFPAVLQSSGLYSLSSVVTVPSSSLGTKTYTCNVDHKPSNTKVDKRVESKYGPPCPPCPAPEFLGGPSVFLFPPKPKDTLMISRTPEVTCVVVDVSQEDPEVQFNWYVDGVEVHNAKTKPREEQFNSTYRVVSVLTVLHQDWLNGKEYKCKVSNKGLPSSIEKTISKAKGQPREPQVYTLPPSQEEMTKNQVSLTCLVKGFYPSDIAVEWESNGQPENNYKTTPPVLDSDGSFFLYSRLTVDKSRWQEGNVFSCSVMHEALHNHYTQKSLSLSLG
light: EIVLTQSPGTLSLSPGERATLSCRASQSIGKSFLAWYQQKPGQAPRLLIYDASTRAADIPARFSGSGSGTDFTLTISSLEPEDFAVYYCQQYYDWPPLSFGGGTKVEIKRTVAAPSVFIFPPSDEQLKSGTASVVCLLNNFYPREAKVQWKVDNALQSGNSQESVTEQDSKDSTYSLSSTLTLSKADYEKHKVYACEVTHQGLSSPVTKSFNRGEC
B2: H7-632-hIgG1-LAGA (antibody, V domains shown)
VH: EVQLLESGGGLVQPGGSLRLSCAASGFTFKSYAMHWVRQAPGKGLEWVSAIVYSGGSTYYADSVKGRFTISRDNSKNTLYLQMNSLRAEDTAVYYCAKYDRASYFYDAMDVWGQGTTVTVSS
VL: EIVLTQSPGTLSLSPGERATLSCRASQSISSSFLAWYQQKPGQAPRLLIYDASDRATGIPDRFSGSGSGTDFTLTISRLEPEDFAVYYCQQYYDWPPLSFGGGTKVEIKR

Columns and labels:
[1] = molecular target: T1, human PD-1 (amino acids 1-185) on transfected Jurkat cells (human, UniProt Q15116 21-185); experiment: flow cytometry on Jurkat cells expressing hPD-1; cells pre-incubated with 10 µM anti-hPD-1 #2-mIgG2b-N297A
T1 construct: also called hPD-1; Jurkat+hPD-1 cell line
T1 sequence (Q15116 21-185 limits assumed): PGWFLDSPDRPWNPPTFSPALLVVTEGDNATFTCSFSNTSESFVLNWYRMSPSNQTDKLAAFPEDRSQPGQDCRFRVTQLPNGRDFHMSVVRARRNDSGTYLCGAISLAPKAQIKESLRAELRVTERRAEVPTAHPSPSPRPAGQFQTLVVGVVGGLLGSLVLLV

[2] = molecular target: T2, native cynomolgus PD-1 on PMA/ionomycin-activated cynomolgus T cells (cynomolgus, UniProt B0LAJ3 25-288); experiment: flow cytometry, activated cynomolgus CD3+CD8+ T cells
T2 sequence (B0LAJ3 entry or part of it limits assumed): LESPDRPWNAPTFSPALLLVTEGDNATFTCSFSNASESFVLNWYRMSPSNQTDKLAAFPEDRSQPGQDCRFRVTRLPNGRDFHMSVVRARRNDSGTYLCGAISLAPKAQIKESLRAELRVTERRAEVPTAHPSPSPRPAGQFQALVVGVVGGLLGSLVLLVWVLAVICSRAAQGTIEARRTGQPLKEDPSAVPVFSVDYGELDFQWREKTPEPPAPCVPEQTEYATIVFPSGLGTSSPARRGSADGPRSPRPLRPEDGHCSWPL
Protocol: (§1) Human PD-1 antibody-attenuated hIL-2 fusion proteins were also tested for binding to activated cynomolgus T cells using flow cytometry. […] 24 hours later, cells were stained using the same procedure as binding to human PD-1 primary cells described above except cynomolgus cross-reactive markers were used. FlowJo software version 10 was used to gate on live, CD3⁺CD4⁺ or CD3⁺CD8⁺ T cells and then to calculate gMFI of the Allophycocyanin signal. EC₅₀ values were calculated from the gMFI across the titrated concentrations of anti-hPD-1 antibodies or hPD-1 antibody-attenuated hIL-2 fusion proteins using GraphPad Prism 7 software.

[3] = molecular target: T2, native cynomolgus PD-1 on …; experiment: flow cytometry, activated cynomolgus CD3+CD4+ T cells
Protocol: as §1

[4] = molecular target: T1, human PD-1 (amino acids 1-185) on …; experiment: flow cytometry on Jurkat cells expressing hPD-1; no competitor
Protocol: (§2) Briefly, Jurkat cells stably expressing hPD-1 (as described in Protocol A above) were washed and re-suspended in FACS buffer containing 1:50 dilution of human FcR Blocking reagent. Cells were incubated at 4° C. for 10 minutes and washed. […] Cells were washed and incubated with test antibodies or antibody-attenuated hIL-2 fusion proteins serially diluted six-fold for an 8-point curve in 100 μL volume for one hour at 4° C. To detect bound test anti-hPD-1 antibodies or anti-hPD-1-attenuated hIL-2 fusion proteins, cells were washed again and incubated with 1:40 dilution of Allophycocyanin-conjugated anti-human IgG Fc monoclonal antibody for 45 minutes on ice. Cells were washed and re-suspended in FACS buffer containing 1:1000 dilution of Sytox Green (Thermo Fisher). […] Flow cytometry was carried out on the BD Canto II, BD Celesta, or BD Fortessa (BD Biosciences) flow cytometers and gMFI was calculated using FlowJo software version 10. EC₅₀ values were calculated from the gMFI of the Allophycocyanin signal across the titrated concentrations using GraphPad Prism 7 software.

[5] = molecular target: human PD-1 on Jurkat Effector cells of the PD-1/PD-L1 blockade bioassay (Promega, Cat #J1255) (human, UniProt Q15116 25-288); experiment: cell-based or functional assay
Chain of human PD-1 on Jurkat Effector cells of the PD-1/PD-L1 blockade bioassay (Promega, Cat #J1255) (Q15116 25-288): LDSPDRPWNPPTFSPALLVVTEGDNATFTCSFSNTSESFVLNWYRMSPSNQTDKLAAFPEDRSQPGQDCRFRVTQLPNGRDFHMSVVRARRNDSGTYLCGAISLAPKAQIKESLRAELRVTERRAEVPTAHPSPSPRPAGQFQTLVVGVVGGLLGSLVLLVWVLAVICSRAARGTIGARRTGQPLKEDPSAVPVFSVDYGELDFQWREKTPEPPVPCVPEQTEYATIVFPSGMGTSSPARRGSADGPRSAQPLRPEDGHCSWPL

[6] = molecular target: T1, human PD-1 (amino acids 1-185) on …; experiment: flow cytometry, Jurkat+hPD-1 cells; competitor 10 µM anti-hPD-1 #1-mIgG2b-N297A
Protocol: as §2

[7] = molecular target: T1, human PD-1 (amino acids 1-185) on …; experiment: flow cytometry on Jurkat cells expressing hPD-1; cells pre-incubated with 10 µM anti-hPD-1 #1-mIgG2b-N297A
Protocol: as §2

[8] = molecular target: T3, native human PD-1 on PMA/ionomycin-activated primary human T cells (human, UniProt Q15116 25-288); experiment: flow cytometry, activated human CD3+CD8+ T cells
T3 construct: whole, on cells; also called native hPD-1
T3 sequence (Q15116 25-288): as above
Protocol: (§3) The binding of anti-hPD-1 antibodies and anti-hPD-1-attenuated hIL-2 fusion proteins on activated primary T cells expressing hPD-1 was examined by flow cytometry. […] Cells were then stained with 1:20 dilution of Allophycocyanin-conjugated anti-human IgG Fc to detect bound antibody. To delineate immune subsets, a cocktail of surface markers included anti-human CD3, anti-CD4, and anti-CD8 antibodies was used. […] Cells were analyzed on the BD Fortessa (BD Biosciences), FlowJo software version 10 was used to gate on T cell subsets then calculate gMFI of the allophycocyanin signal. EC₅₀ values were calculated from the gMFI across the titrated concentrations using GraphPad Prism 7 software. To test the binding of anti-hPD-1-hIL-2 fusion proteins, cryopreserved CD3+ T cells were activated with PMA/ionomycin and flow cytometry binding was performed identically as described above.

[9] = molecular target: T3, native human PD-1 on …; experiment: flow cytometry, activated human CD3+CD4+ T cells
Protocol: as §3

[10] = molecular target: T4, recombinant His-tagged human PD-1 (Acro Biosystems) (human, UniProt Q15116 25-167); experiment: SPR, steady state, separate experiment; separate experiment; steady state KD
T4 construct: also called recombinant human PD-1; human PD-1 (Acro Biosystems, Cat #PD-1-H5221-100 ug)
T4 sequence (Q15116 25-167 limits assumed): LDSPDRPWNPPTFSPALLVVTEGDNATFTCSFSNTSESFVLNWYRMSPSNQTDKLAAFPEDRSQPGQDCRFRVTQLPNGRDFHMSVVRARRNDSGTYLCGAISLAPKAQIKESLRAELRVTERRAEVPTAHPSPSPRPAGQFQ

Binder	EC50 (read off the curve) [1] [nM]	EC50 [2] [nM]	EC50 [3] [nM]	EC50 (read off the curve) [4] [nM]	luminescence (RLU), PD-1/PD-L1 blockade bioassay [5] [RLU]	fold shift of the dose-titration curve [6] [fold]	EC50 (read off the curve) [7] [nM]	EC50 [8] [nM]	EC50 [9] [nM]	Kd [10] [nM]
B1	~2	0.08	0.09	~0.3	~3000	< 10	~0.5	0.1 to 0.8	0.1 to 0.7	
B2										1.23

From US20240076343A1 (CEPHALON, published 2024)
